Measurements taken from patent US10294487B2, “Methods and compositions involving ALS variants with native substrate preference” (E I DU PONT DE NEMOURS AND COMPANY, priority 2012, dated 2019).

Columns and labels:
[1] = tested on: G. max ALS1 protein; assay: Substrate specificity ratio (Rf), pyruvate versus 2-ketobutyrate, LC-MS of reduced products; format: biochemical, Glycine max; settings: ratio of [pyruvate] to [2-ketobutyrate] giving equal rates of acetolactate and acetohydroxybutyrate formation, 25 mM pyruvate
Excerpt: The “substrate specificity ratio”, or “Rf”, characterizes the specificity of the ALS enzyme for AHB formation relative to AL formation (Gollop et al. (1989) Biochemistry 28:6310-6317). Rf is the ratio of [pyruvate] to [2-ketobutyrate] that results in equal rates of formation of acetolactate and acetohydroxybutyrate. Rf is a constant at all substrate concentrations. The substrate specificity ratio is ˜114 for the wild type Glycine max ALS1 enzyme (SEQ ID NO:1) compared to ˜3 for the highly resistant allele (HRA) double mutant variant (SEQ ID NO: 10) of the Glycine max ALS1. The soybean HRA sequence is disclosed, for example, in WO2007/024782, herein incorporated by reference.
Substrate preference was determined using the assay described in Example 3; however, the assay was conducted using a constant concentration of pyruvate (25 mM) and varying concentrations of the second substrate, 2-ketobutyrate. Each reaction involving a specific ratio of pyruvate to 2-ketobutyrate, after a set period of time, was quenched by addition of sodium borohydride (7-fold excess) to form the reduced adducts of the products of the two substrates namely; reduced acetolactate for the reaction with pyruvate and reduced aceto hydroxybutyrate for the 2-ketobutyrate reaction. The relative amounts of the two reduced products was determined by first, chromatographic separation using a 4.6×250 mm dC18 column (Atlantis) equilibrated with a 0.1% formic acid solution and subsequent elution using a methanol gradient at 0.7 ml/min, followed by detection using a Thermo FINNIGAN® LTQ® Mass Spectrometer (MS). The products of the two reactions were quantified by integration of the MS signals. The % of the amount of each of the reduced products was then plotted versus the concentration of 2-ketobutyrate. As the 2-ketobutyrate amount increased there was a consequent increase in reduced acetohydroxybutyrate (AHB) and decrease in reduced acetolactate (AL). […] The substrate specificity ratio was ˜114 for the wild type enzyme compared to 3 for the highly resistant allele (HRA) double mutant ALS variant (SEQ ID NO: 10).

[2] = tested on: G. max ALS1 protein; assay: Colorimetric ALS kinetic assay (Km, kcat) with pyruvate as substrate; format: biochemical, Glycine max
Method: A survey of known ALS (AcetoLactate Synthase) gene variants (Table 2) was performed, and a number of ALS variants were selected for kinetic evaluation based on breadth and strength of insensitivity to ALS-inhibitor herbicides as well as kinetic activity parameters including the ratio of substrate preferences. The selected ALS gene variants (Table 3) were generated by PCR mediated site-directed mutagenesis. Finnzymes PHUSION® DNA polymerase (Cat. No. F-530S) was used for the PCR reactions, following the instructions for recommended temperatures and cycles in the PHUSION® protocol. Some mutagenesis reactions were assisted by the use of IN-FUSION® enzyme (Clontech Cat. No. 639620) to circularize a linear plasmid with the mutation located within the 15 nucleotide overlapping ends, via recombination following the manufacturer's protocol for primer design and reaction conditions. The ALS genes, beginning with encoded amino acids SISK, (S48 to K51 in the G. max ALS1 protein (SEQ ID NO:1) corresponding to the mature protein N-terminus of the chloroplast localized enzyme), were cloned into the PMAL® E. coli expression vector (New England Biolabs) to express ALS as a fusion protein with a Maltose-Binding Protein (MBP) at the N-terminus with a thrombin site for cleavage and a His-6 tag for affinity purification. All in vitro protein characterization described in the examples was carried out with the isolated proteins after cleavage from the His-MBP fusion partner.
Km and Kcat determinations for recombinant ALS variants (with respect to pyruvate as the substrate) were performed using a colorimetric assay. ALS assays were carried out in 96-well microplates with 150 ul reaction containing 25 mM potassium phosphate, 0.2 mg/ml BSA, 15 mM MgCl2, 0.7 mM TPP, 28 uM FAD and 0-100 mM sodium pyruvate. Reactions were initiated by the addition of ALS enzyme to a final amount of 0.8 ug/well. Parameters for Km and Vmax were determined by fitting the velocity versus substrate concentration data to a rectangular hyperbola using GraphPad Prism software. Kcat values were determined from Vmax based on protein concentration in the reactions.

B1: GM-ALS_P178A_W555L: highly resistant allele (HRA) double mutant of Glycine max ALS1: P→A at 178 and W→L at 555 (protein)
chain: MAATASRTTRFSSSSSHPTFPKRITRSTLPLSHQTLTKPNHALKIKCSISKPPTAAPFTKEAPTTEPFVSRFASGEPRKGADILVEALERQGVTTVFAYPGGASMEIHQALTRSAAIRNVLPRHEQGGVFAAEGYARSSGLPGVCIATSGPGATNLVSGLADALMDSVPVVAITGQVARRMIGTDAFQETPIVEVSRSITKHNYLILDVDDIPRVVAEAFFVATSGRPGPVLIDIPKDVQQQLAVPNWDEPVNLPGYLARLPRPPAEAQLEHIVRLIMEAQKPVLYVGGGSLNSSAELRRFVELTGIPVASTLMGLGTFPIGDEYSLQMLGMHGTVYANYAVDNSDLLLAFGVRFDDRVTGKLEAFASRAKIVHIDIDSAEIGKNKQAHVSVCADLKLALKGINMILEEKGVEGKFDLGGWREEINVQKHKFPLGYKTFQDAISPQHAIEVLDELTNGDAIVSTGVGQHQMWAAQFYKYKRPRQWLTSGGLGAMGFGLPAAIGAAVANPGAVVVDIDGDGSFIMNVQELATIRVENLPVKILLLNNQHLGMVVQLEDRFYKSNRAHTYLGDPSSESEIFPNMLKFADACGIPAARVTKKEELRAAIQRMLDTPGPYLLDVIVPHQEHVLPMIPSNGSFKDVITEGDGRTRY
modifications: ALS1 variant P178A W555L
B1 was tested, and the “Substrate specificity ratio (Rf)” value [1] was 2.9, the “Substrate specificity ratio (Rf)” value ([1]; listed as HRA) was 3 and the Km [2] was 15 mM. For the same molecule, the kcat [2] was 1.5 s⁻¹.

B2: GM-ALS_P178S_D357E: Glycine Max ALS1 with P→S at position 178 and D→E at position 357 (protein)
chain: MAATASRTTRFSSSSSHPTFPKRITRSTLPLSHQTLTKPNHALKIKCSISKPPTAAPFTKEAPTTEPFVSRFASGEPRKGADILVEALERQGVTTVFAYPGGASMEIHQALTRSAAIRNVLPRHEQGGVFAAEGYARSSGLPGVCIATSGPGATNLVSGLADALMDSVPVVAITGQVSRRMIGTDAFQETPIVEVSRSITKHNYLILDVDDIPRVVAEAFFVATSGRPGPVLIDIPKDVQQQLAVPNWDEPVNLPGYLARLPRPPAEAQLEHIVRLIMEAQKPVLYVGGGSLNSSAELRRFVELTGIPVASTLMGLGTFPIGDEYSLQMLGMHGTVYANYAVDNSDLLLAFGVRFDERVTGKLEAFASRAKIVHIDIDSAEIGKNKQAHVSVCADLKLALKGINMILEEKGVEGKFDLGGWREEINVQKHKFPLGYKTFQDAISPQHAIEVLDELTNGDAIVSTGVGQHQMWAAQFYKYKRPRQWLTSGGLGAMGFGLPAAIGAAVANPGAVVVDIDGDGSFIMNVQELATIRVENLPVKILLLNNQHLGMVVQWEDRFYKSNRAHTYLGDPSSESEIFPNMLKFADACGIPAARVTKKEELRAAIQRMLDTPGPYLLDVIVPHQEHVLPMIPSNGSFKDVITEGDGRTRY
modifications: ALS1 variant P178S D357E
In the case of B2, the “Substrate specificity ratio (Rf)” value [1] is reported as 100.0, the Km [2] is reported as 6 mM and the kcat [2] is reported as 3.17 s⁻¹.

B3: GM-ALS_A103T_P178S_D357E: Glycine Max ALS1 with A→T at 103, P→S at 178 and D→E at 357 (protein)
chain: MAATASRTTRFSSSSSHPTFPKRITRSTLPLSHQTLTKPNHALKIKCSISKPPTAAPFTKEAPTTEPFVSRFASGEPRKGADILVEALERQGVTTVFAYPGGTSMEIHQALTRSAAIRNVLPRHEQGGVFAAEGYARSSGLPGVCIATSGPGATNLVSGLADALMDSVPVVAITGQVSRRMIGTDAFQETPIVEVSRSITKHNYLILDVDDIPRVVAEAFFVATSGRPGPVLIDIPKDVQQQLAVPNWDEPVNLPGYLARLPRPPAEAQLEHIVRLIMEAQKPVLYVGGGSLNSSAELRRFVELTGIPVASTLMGLGTFPIGDEYSLQMLGMHGTVYANYAVDNSDLLLAFGVRFDERVTGKLEAFASRAKIVHIDIDSAEIGKNKQAHVSVCADLKLALKGINMILEEKGVEGKFDLGGWREEINVQKHKFPLGYKTFQDAISPQHAIEVLDELTNGDAIVSTGVGQHQMWAAQFYKYKRPRQWLTSGGLGAMGFGLPAAIGAAVANPGAVVVDIDGDGSFIMNVQELATIRVENLPVKILLLNNQHLGMVVQWEDRFYKSNRAHTYLGDPSSESEIFPNMLKFADACGIPAARVTKKEELRAAIQRMLDTPGPYLLDVIVPHQEHVLPMIPSNGSFKDVITEGDGRTRY
modifications: ALS1 variant A103T P178S D357E
In the case of B3, the “Substrate specificity ratio (Rf)” value [1] is reported as 114.0, the Km [2] is reported as 21 mM and the kcat [2] is reported as 1.05 s⁻¹.

B4: GM-ALS_P178S: Glycine Max ALS1 variant with a P→S mutation at position 178 (protein)
chain: MAATASRTTRFSSSSSHPTFPKRITRSTLPLSHQTLTKPNHALKIKCSISKPPTAAPFTKEAPTTEPFVSRFASGEPRKGADILVEALERQGVTTVFAYPGGASMEIHQALTRSAAIRNVLPRHEQGGVFAAEGYARSSGLPGVCIATSGPGATNLVSGLADALMDSVPVVAITGQVSRRMIGTDAFQETPIVEVSRSITKHNYLILDVDDIPRVVAEAFFVATSGRPGPVLIDIPKDVQQQLAVPNWDEPVNLPGYLARLPRPPAEAQLEHIVRLIMEAQKPVLYVGGGSLNSSAELRRFVELTGIPVASTLMGLGTFPIGDEYSLQMLGMHGTVYANYAVDNSDLLLAFGVRFDDRVTGKLEAFASRAKIVHIDIDSAEIGKNKQAHVSVCADLKLALKGINMILEEKGVEGKFDLGGWREEINVQKHKFPLGYKTFQDAISPQHAIEVLDELTNGDAIVSTGVGQHQMWAAQFYKYKRPRQWLTSGGLGAMGFGLPAAIGAAVANPGAVVVDIDGDGSFIMNVQELATIRVENLPVKILLLNNQHLGMVVQWEDRFYKSNRAHTYLGDPSSESEIFPNMLKFADACGIPAARVTKKEELRAAIQRMLDTPGPYLLDVIVPHQEHVLPMIPSNGSFKDVITEGDGRTRY
modifications: ALS1 variant P178S
In the case of B4, the “Substrate specificity ratio (Rf)” value [1] is reported as 104.0, the Km [2] is reported as 1.6 mM and the kcat [2] is reported as 1.15 s⁻¹.

B5: GM-ALS_A103T_P178S: Glycine Max ALS1 with A→T at position 103 and P→S at position 178 (protein)
chain: MAATASRTTRFSSSSSHPTFPKRITRSTLPLSHQTLTKPNHALKIKCSISKPPTAAPFTKEAPTTEPFVSRFASGEPRKGADILVEALERQGVTTVFAYPGGTSMEIHQALTRSAAIRNVLPRHEQGGVFAAEGYARSSGLPGVCIATSGPGATNLVSGLADALMDSVPVVAITGQVSRRMIGTDAFQETPIVEVSRSITKHNYLILDVDDIPRVVAEAFFVATSGRPGPVLIDIPKDVQQQLAVPNWDEPVNLPGYLARLPRPPAEAQLEHIVRLIMEAQKPVLYVGGGSLNSSAELRRFVELTGIPVASTLMGLGTFPIGDEYSLQMLGMHGTVYANYAVDNSDLLLAFGVRFDDRVTGKLEAFASRAKIVHIDIDSAEIGKNKQAHVSVCADLKLALKGINMILEEKGVEGKFDLGGWREEINVQKHKFPLGYKTFQDAISPQHAIEVLDELTNGDAIVSTGVGQHQMWAAQFYKYKRPRQWLTSGGLGAMGFGLPAAIGAAVANPGAVVVDIDGDGSFIMNVQELATIRVENLPVKILLLNNQHLGMVVQWEDRFYKSNRAHTYLGDPSSESEIFPNMLKFADACGIPAARVTKKEELRAAIQRMLDTPGPYLLDVIVPHQEHVLPMIPSNGSFKDVITEGDGRTRY
modifications: ALS1 variant A103T P178S
For B5, the “Substrate specificity ratio (Rf)” value [1] was 75.0, the Km [2] was 10 mM and the kcat [2] was 2.08 s⁻¹.
